# Molecular target: intracellular product of the soybean Rps1b gene (soybean)
# Assay: cell-based or functional assay
substance,measurement,value
"mature Avr1b (lacking the secretory leader), Phytophthora sojae",Killing in presence of Rps1b (ratio of GUS spots),0.22

# — patent US20090011510A1
